Numbering of substitutions follows the chain as printed.
Experiments:
[1] = molecular target: T1, V459A (Homo sapiens, UniProt P78325); experiment: high-throughput flow cytometry, HEK293 cells with mutant ADAM8, high stringency; range in parentheses; dotted box
T1 construct: expressed on HEK293 cells; also called human ADAM8 point mutant V459A
T1 sequence (ADAM8, looked up): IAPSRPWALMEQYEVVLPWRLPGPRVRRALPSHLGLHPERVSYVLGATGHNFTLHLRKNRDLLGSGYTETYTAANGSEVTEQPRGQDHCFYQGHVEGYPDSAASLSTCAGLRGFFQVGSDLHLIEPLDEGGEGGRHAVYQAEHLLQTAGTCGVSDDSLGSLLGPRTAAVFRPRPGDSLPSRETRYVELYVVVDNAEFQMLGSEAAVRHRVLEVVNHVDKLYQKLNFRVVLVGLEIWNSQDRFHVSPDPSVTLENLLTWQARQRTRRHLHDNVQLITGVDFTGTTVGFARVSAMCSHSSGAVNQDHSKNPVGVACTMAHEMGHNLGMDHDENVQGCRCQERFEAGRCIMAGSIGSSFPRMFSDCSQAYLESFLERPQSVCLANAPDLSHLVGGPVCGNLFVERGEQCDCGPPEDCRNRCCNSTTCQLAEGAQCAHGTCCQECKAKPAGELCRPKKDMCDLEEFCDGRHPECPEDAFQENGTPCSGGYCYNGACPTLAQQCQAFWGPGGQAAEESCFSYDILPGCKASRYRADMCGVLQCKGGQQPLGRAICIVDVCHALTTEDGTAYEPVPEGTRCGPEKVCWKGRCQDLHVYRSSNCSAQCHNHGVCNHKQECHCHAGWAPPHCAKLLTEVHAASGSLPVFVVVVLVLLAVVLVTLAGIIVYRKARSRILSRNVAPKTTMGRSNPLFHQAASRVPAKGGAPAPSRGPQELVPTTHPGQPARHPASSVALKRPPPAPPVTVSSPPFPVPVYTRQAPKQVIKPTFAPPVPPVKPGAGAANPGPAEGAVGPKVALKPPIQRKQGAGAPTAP
Method: (§1) A variety of experimental parameters were optimized for high-throughput flow cytometry including blocking buffer, and primary and secondary antibody concentrations, to identify the optimal conditions for screening. Through these studies ADP2 and ADP13 were determined to be high affinity binding antibodies.
(§2) Thus, for these studies antigen-binding fragments (Fabs) of ADP2 and ADP13, which bind with lower affinity than the full antibody, were generated. In addition, higher binding stringency conditions were tested, such as increased pH, salinity, and temperature, and/or increased washing, to weaken binding sufficiently to allow identification of critical binding residues in flow cytometry. The final experimental flow cytometry conditions were: primary antibody incubation with ADP2 Fab (0.50 μg/ml), ADP13 Fab (5.00 μg/ml) and Control Ab (0.16 μg/ml) for 60 minutes in flow cytometry buffer containing 10% goat serum in PBS (Ca²⁺ and Mg²⁺ free). […] Samples were washed three times after primary antibody incubation and twice after secondary antibody incubation with PBS (Ca²⁺ and Mg′ free). Next, HEK293 cells expressing WT or mutated ADAM8 proteins or EV DNA were incubated with ADP2 or ADP13 Fabs or Control Ab at their optimal concentrations. Fab binding was detected using Alexa Fluor 488-conjugated secondary antibodies and mean cellular fluorescence determined using the Intellicyt iQue flow cytometry platform. […] This counter-screen strategy facilitates the exclusion of mutants that are locally misfolded or that have an expression defect. Binding of each test Fab to each mutant clone in the alanine scanning library was determined, in duplicate, by high-throughput flow cytometry.

[2] = molecular target: T2, A462S (Homo sapiens, UniProt P78325); experiment: as above
T2 construct: expressed on HEK293 cells; also called human ADAM8 point mutant A462S
T2 sequence (ADAM8, looked up): T1 sequence (ADAM8, looked up) with A443V, A446S
Method: as §1, §2

B1: ADP13 Fab (Fab, V domains shown)
VH: EVQLQQSGPEMVKPGTSVKISCKASGYTFTDYYINWVKQSHGKSLEWIGDISPNIGGATYNPKFKGKAILTVDKSARTAYMELRSLTSEDSAVYCCTRGGSSYPYFYAMDYWGQGTSVTVSS
VL: DIVMSQSPSSLAVSVGEKVTMSCKSSQSLLYSSNQKKYLAWYQQKPGQSPKLLIYWASTRESGVPDRFTGSGSGTDFTLTISSVKAEDLAVYYCQQFYSYPYTFGGGTKLEINR
[1]
  Binding Reactivity (% WT): 27.8 % WT
[2]
  Binding Reactivity (% WT): 24.7 % WT
